# Experimental data: patent US9623039B2, “Treatment and prevention of pathological conditions using iduna related techniques and compositions” (VALTED, LLC, priority 2010, dated 2017)
# B1: Iduna: novel NMDA-induced cell survival protein, PAR-dependent E3 ligase; 359 amino acids (protein)
# chain: MEMAGCGEIDHSINMLPTNKKANESCSNTAPSLTVPECAICLQTCVHPVSLPCKHVFCYLCVKGASWLGKRCALCRQEIPEDFLDKPTLLSPEELKAASRGNGEYAWYYEGRNGWWQYDERTSRELEDAFSKGKKNTEMLIAGFLYVADLENMVQYRRNEHGRRRKIKRDIIDIPKKGVAGLRLDCDTNTVNLARESSADGADSGSAQTGASVQLAVPSSTRPLTSVDGQLTSPVTPSPDAGISLEDSFAHLQLSGDSIAERSHRGEGEEDHESPSSGRVPDTSVEETESDASSDSEDAPVVVAQHSLTQQRPLVPNGNQTVADQSDRSGTDRSVAGGGTMSVNVRSRRPDGQCTVIEV
# Tests used:
# [1] = tested on: PAR polymer; experiment: EMSA for PAR binding
# Excerpt: PAR binding is specified by a sequence of approximately 20 amino acids containing N-terminal basic amino acids and a C-terminal region containing alternating hydrophobic and basic amino acids (FIG. 24). Iduna contains a predicted PAR polymer binding sequence within amino acids 144-167 of the WWE domain (FIGS. 1 and 24). The PAR-binding domain was defined by comparing to the consensus sequence for PAR-binding and the known PAR binding domain of Histone 3 (FIG. 24). HEK293 cells were transfected with GFP, GFP-Iduna lacking the WWE domain (GFP-IdunaΔWWE), GFP-Iduna lacking the RF domain (GFP-IdunaARF), and full-length GFP-Iduna, followed by immunoprecipitation with a GFP antibody. […] Only GFP-Iduna-ARF and full-length GFP-Iduna can co-immunoprecipiate PAR binding proteins (FIG. 25). The critical amino acids in the PAR binding domain, 156Y and 157R, were mutated to 156A and 157A in full length Iduna (Iduna-YRAA). […] Similar results are obtained with a biotin-tagged PAR polymer followed by detection with an anti-biotin antibody (FIG. 26). […] Histone H3 is a known PAR binding protein and was used as a positive control for the PAR overlay assay. […] An assay based on electrophorectic mobility shift (EMSA) for PAR binding was developed to monitor PAR polymer binding to Iduna. […]
# [2] = tested on: primary cortical neurons; experiment: NMDA excitotoxicity cell death in primary cortical neurons; type: cell-based, mouse; settings: NMDA 100 μM for 5 min, Iduna overexpression
# Experimental: Primary Neuronal Culture Preparation: Primary cortical cell cultures were prepared from gestational day 15 mouse embryos as previously described. Experiments were performed at DIV (day in vitro) 14. Under these conditions, neurons represent 90% of the cells in the culture. Mature neurons were washed with control salt solution (CSS) containing 120 mM NaCl, 5.4 mM KCl, 1.8 mM CaCl2, 25 mM Tris-HCl pH 7.4 and 15 mM D-glucose. To induce NMDA-mediated […], 50 μM NMDA and 10 μM glycine in CSS solution was applied to the cells for 5 min, then the cells were washed and re-supplemented with minimum essential medium containing 10% horse serum. […]
# Cell Death Assessment: Following exposure of neuronal cultures to the various treatments neuronal survival was quantified and presented as percent of cell death. Percent cell death was determined as the ratio of live-to-dead cells compared with the percent cell death in control wells to account for cell death attributable to mechanical stimulation of the cultures. Quantification of neuronal survival was determined by staining treated cultures with 5 μM Hoechst 33342 and 2 μM propidium iodide (PI) (Invitrogen, Carlsbad, Calif.). […] The numbers of total and dead (PI positive) cells were counted by automated computer assisted software (Axiovision 4.6, Zeiss, Germany). […]
molecule,measurement,setting,value
B1,PAR polymer mobility shift,[1],retards the mobility shift of PAR polymer
same,cell death %,[2],23.0±1.8%
